Source: patent publication US20210017281A1 (IMMUNEXT, published 2021)

biological target: T1, human VISTA (human, UniProt Q9H7M9 33-194, limits assumed); assay: method not stated (Table 1, column Kd, M)
T1 construct: The ELISA text says only recombinant VISTA; also called recombinant VISTA

Binder	Kd [nM]
INX904 | VSTB103 (antibody, V domains shown, INX name = the VSTB variable regions with human IgG2 constant regions) VH: EVQLVQSGAEVKKPGESLKISCKGSGYSFTSYWIGWVRQMPGKGLEWMGIIYPGDSDTRYSPSFQGQVTISADKSISTAYLQWSSLKASDTAMYYCARDDALYGGYYLDYWGQGTLVTVSS VL: not shown	0.636
INX913 | VSTB85 (antibody, V domains shown) VH: QVQLVQSGAEVKKPGASVKVSCKASGYTFTDYAMHWVRQAPGQGLEWMGVIDTYYGNTNYNQKFKGRVTMTRDTSISTAYMELSRLRSDDTAVYYCARGGGDALDYWGQGTTVTVSS VL: DIQMTQSPSSLSASVGDRVTITCKASQSVSNDVVWYQQKPGKAPKLLIYYASNRYIGVPSRFSGSGSGTDFTFTISSLQPEDIATYYCQQGYTSLRTFGQGTKLEIKR	0.0378
INX911 | VSTB76 (antibody, V domains shown) VH: QVQLVQSGAEVKKPGASVKVSCKASGYTFTDYWINWVRQAPGQGLEWMGNIYPSHSYTNYNQEFKDRVTMTRDTSTSTVYMELSSLRSEDTAVYYCARGGYRYPYYAMDYWGQGTTVTVSS VL: AIQLTQSPSSLSASVGDRVTITCGASENIYGALNWYQQKPGKAPKLLIYGATNLADGVPSRFSGSGSGTDFTLTISSLQPEDFATYYCQNVLSTPYTFGQGTKLEIKR	1.31
INX912 | VSTB84 (antibody, V domains shown) VH: QVQLVQSGAEVKKPGASVKVSCKASGYTFTSYWMHWVRQAPGQGLEWMGYINPSTGYPGYNQKFKDRVTMTRDTSTSTVYMELSSLRSEDTAVYYCARSYYDYDGGAWFAYWGQGTTVTVSS VL: DIVMTQTPLSLSVTPGQPASISCRASESVEYYGTSLMQWYLQKPGQPPQLLIYAASNVESGVPDRFSGSGSGTDFTLKISRVEAEDVGVYYCQQSRKVPSTFGQGTKLEIKR	2.03
INX910 | VSTB73 (antibody, V domains shown) VH: QVQLVQSGAEVKKPGASVKVSCKASGYTFTDYVISWVRQAPGQGLEWMGEIYPGSGNTYYYEKFKGRVTMTRDTSTSTVYMELSSLRSEDTAVYYCARVLVSVMDYWGQGTLVTVSS VL: EIVLTQSPDFQSVTPKEKVTITCSASSSINYITWYQQKPDQSPKLLIKDTSKLASGVPSRFSGSGSGTDFTLTINSLEAEDAATYYCHQRSSYPWTFGQGTRLEIKR	2.26
INX903 | VSTB95 (antibody, V domains shown, INX903 = VSTB95 variable regions with wild-type human IgG2 constant regions) VH: EVQLVESGGGLVQPGGSLRLSCAASGFTFRNYGMSWVRQAPGKGLEWVASIISGGSYTYYPDSVKGRFTISRDNAKNSLYLQMNSLRAEDTAVYYCARIYDHDGDYYAMDYWGQGTTVTVSS VL: DIVMTQSPLSLPVTPGEPASISCRSSQSIVHSNGNTYLEWYLQKPGQSPQLLIYKVSNRFSGVPDRFSGSGSGTDFTLKISRVEAEDVGVYYCFQGSHVPWTFGQGTKLEIK	0.126
INX905 | VSTB53 (antibody, V domains shown, INX name = the VSTB variable regions with human IgG2 constant regions) VH: QVQLVQSGAEVKKPGASVKVSCKASGYTFTHYTIHWVRQAPGQGLEWMGYIIPSSGYSEYNQKFKDRVTMTRDTSTSTVYMELSSLRSEDTAVYYCARGAYDDYYDYYAMDYWGQGTLVTVSS VL: DIVMTQSPLSLPVTPGEPASISCRSSQTIVHSNGNTYLEWYLQKPGQSPQLLIYKVSNRFSGVPDRFSGSGSGTDFTLKISRVEAEDVGVYYCFQASHVPWTFGQGTKLEIK	0.0264
INX919 | VSTB115 (antibody, V domains shown) VH: QVQLVQSGAEVKKPGSSVKVSCKASGGTFSSYAISWVRQAPGQGLEWMGGIIPIFGTANYAQKFQGRVTITADESTSTAYMELSSLRSEDTAVYYCARSSYGWSYEFDYWGQGTLVTVSS VL: DIQMTQSPSSLSASVGDRVTITCRASQSIRTYLNWYQQKPGKAPKLLIYAASSLQSGVPSRFSGSGSGTDFTLTISSLQPEDFATYYCQQAYSNPITFGQGTKVEIKR	0.145
INX917 | VSTB110 (antibody, V domains shown) VH: QVQLVQSGAEVKKPGSSVKVSCKASGGTFSSYAISWVRQAPGQGLEWMGGIIPIFGTANYAQKFQGRVTITADESTSTAYMELSSLRSEDTAVYYCARHSIGWVAELDYWGQGTLVTVSS VL: DIQMTQSPSSLSASVGDRVTITCRASQSINTDLNWYQQKPGKAPKLLIYAASSLQSGVPSRFSGSGSGTDFTLTISSLQPEDFATYYCQQGASDPITFGQGTKVEIKR	0.202
INX916 | VSTB107 (antibody, V domains shown) VH: QVQLVQSGAEVKKPGSSVKVSCKASGGTFSSYAISWVRQAPGQGLEWMGGIIPIFGTANYAQKFQGRVTITADESTSTAYMELSSLRSEDTAVYYCARSSYGWSYEFDYWGQGTLVTVSS VL: DIQMTQSPSSLSASVGDRVTITCRASQSINNDLNWYQQKPGKAPKLLIYAASSLQSGVPSRFSGSGSGTDFTLTISSLQPEDFATYYCQQNRATPITFGQGTKVEIKR	0.089
INX915 | VSTB106 (antibody, V domains shown) VH: QVQLVQSGAEVKKPGSSVKVSCKASGGTFSSYAISWVRQAPGQGLEWMGGIIPIFGTANYAQKFQGRVTITADESTSTAYMELSSLRSEDTAVYYCARSSYGWSYEFDYWGQGTLVTVSS VL: DIQMTQSPSSLSASVGDRVTITCRASQSIRTDLNWYQQKPGKAPKLLIYSASSLQSGVPSRFSGSGSGTDFTLTISSLQPEDFATYYCQQNERTPITFGQGTKVEIKR	0.167
INX909 | VSTB67 (antibody, V domains shown) VH: QVQLVQSGAEVKKPGASVKVSCKASDYIFSSYWIQWVRQAPGQGLEWMGEIFPGSGGTNYNEKFKGRVTMTRDTSTSTVYMELSSLRSEDTAVYYCARAIYYDYDMYYFDSWGQGTTVTVSS VL: DIQMTQSPSSLSASVGDRVTITCRASQDISSYLNWYQQKPGKVPKLLIYYTSRLHSGVPSRFSGSGSGTDFTLTISSLQPEDVATYYCQHVNTLPWTFGQGTKLEIKR	0.0629

The remaining lines, values ahead:

Kd [nM]	Binder
1.48	VSTB100 (antibody, V domains shown) VH: EVQLVQSGAEVKKPGESLKISCKGSGYSFTSYWIGWVRQMPGKGLEWMGIIYPGDSDTRYSPSFQGQVTISADKSISTAYLQWSSLKASDTAMYYCARDVSSFYGYSPMFDYWGQGTLVTVSS VL: EIVLTQSPATLSLSPGERATLSCRASQSVSSYLAWYQQKPGQAPRLLIYDASNRATGIPARFSGSGSGTDFTLTISSLEPEDFAVYYCQQRSNWPLTFGQGTKVEIKR
0.675	VSTB104 (antibody, V domains shown) VH: EVQLVQSGAEVKKPGESLKISCKGSGYSFTSYWIGWVRQMPGKGLEWMGIIYPGDSDTRYSPSFQGQVTISADKSISTAYLQWSSLKASDTAMYYCARDANSFYSAASIFDYWGQGTLVTVSS VL: not shown
0.507	VSTB49 (antibody, V domains shown) VH: QVQLVQSGAEVKKPGASVKVSCKASGYTFPSHTIHWVRQAPGQRLEWMGSIYPFIDSTIYNQKFKDRVTITRDTSASTAYMELSSLRSEDTAVYYCARGIRGYTMDYWGQGTLVTVSS VL: DVVMTQSPLSLPVTLGQPASISCRASESVDNYGLSFMNWFQQRPGQSPRRLIYGASNQGSGVPDRFSGSGSGTDFTLKISRVEAEDVGVYYCQQSKEVPYTFGQGTKLEIKR
0.104	VSTB51 (antibody, V domains shown) VH: EVQLVESGGGLVQPGGSLRLSCAASGFTFSSYTMSWVRQAPGKGLEWVATISNSGSYTYYLDSVKGRFTISRDNAKNSLYLQMNSLRAEDTAVYYCARDTVLSPFDYWGQGTTVTVSS VL: EIVLTQSPDFQSVTPKEKVTITCSATSSISYMHWYQQKPDQSPKLLIKDTSELASGVPSRFSGSGSGTDFTLTINSLEAEDAATYYCHQRSSFTFGQGTKLEIKR
0.152	VSTB114 (antibody, V domains shown) VH: QVQLVQSGAEVKKPGSSVKVSCKASGGTFSSYAISWVRQAPGQGLEWMGGIIPIFGTANYAQKFQGRVTITADESTSTAYMELSSLRSEDTAVYYCARHSIGWVAELDYWGQGTLVTVSS VL: DIQMTQSPSSLSASVGDRVTITCRASQSIATSLNWYQQKPGKAPKLLIYYASSLQSGVPSRFSGSGSGTDFTLTISSLQPEDFATYYCQQGAYYPLTFGQGTKVEIKR
0.102	VSTB109 (antibody, V domains shown) VH: QVQLVQSGAEVKKPGSSVKVSCKASGGTFSSYAISWVRQAPGQGLEWMGGIIPIFGTANYAQKFQGRVTITADESTSTAYMELSSLRSEDTAVYYCARSSYGWSYEFDYWGQGTLVTVSS VL: DIQMTQSPSSLSASVGDRVTITCRASQSIATYLNWYQQKPGKAPKLLIYAASSLQSGVPSRFSGSGSGTDFTLTISSLQPEDFATYYCQQNHNRPITFGQGTKVEIKR
0.0433	INX918 | VSTB113 (antibody, V domains shown) VH: QVQLVQSGAEVKKPGSSVKVSCKASGGTFSSYAISWVRQAPGQGLEWMGGIIPIFGTANYAQKFQGRVTITADESTSTAYMELSSLRSEDTAVYYCARHSIGWVAELDYWGQGTLVTVSS VL: DIQMTQSPSSLSASVGDRVTITCRASQSIATDLNWYQQKPGKAPKLLIYAASSLQSGVPSRFSGSGSGTDFTLTISSLQPEDFATYYCQQAHWYPLTFGQGTKVEIKR
0.171	VSTB111 (antibody, V domains shown) VH: QVQLVQSGAEVKKPGSSVKVSCKASGGTFSSYAISWVRQAPGQGLEWMGGIIPIFGTANYAQKFQGRVTITADESTSTAYMELSSLRSEDTAVYYCARSSYGWSYEFDYWGQGTLVTVSS VL: DIQMTQSPSSLSASVGDRVTITCRASQSINTDLNWYQQKPGKAPKLLIYAASSLQSGVPSRFSGSGSGTDFTLTISSLQPEDFATYYCQQNRGSPITFGQGTKVEIKR
0.494	VSTB108 (antibody, V domains shown) VH: QVQLVQSGAEVKKPGSSVKVSCKASGGTFSSYAISWVRQAPGQGLEWMGGIIPIFGTANYAQKFQGRVTITADESTSTAYMELSSLRSEDTAVYYCARNTFGWSGELDYWGQGTLVTVSS VL: DIQMTQSPSSLSASVGDRVTITCRASQSISNRLNWYQQKPGKAPKLLIYSASSLQSGVPSRFSGSGSGTDFTLTISSLQPEDFATYYCQQNHDNPITFGQGTKVEIKR
0.115	VSTB105 (antibody, V domains shown) VH: QVQLVQSGAEVKKPGSSVKVSCKASGGTFSSYAISWVRQAPGQGLEWMGGIIPIFGTANYAQKFQGRVTITADESTSTAYMELSSLRSEDTAVYYCARSSYGWSYEFDYWGQGTLVTVSS VL: DIQMTQSPSSLSASVGDRVTITCRASQSIATNLNWYQQKPGKAPKLLIYAASSLQSGVPSRFSGSGSGTDFTLTISSLQPEDFATYYCQQNDDRPITFGQGTKVEIKR
0.213	VSTB116 (antibody, V domains shown) VH: QVQLVQSGAEVKKPGSSVKVSCKASGGTFSSYAISWVRQAPGQGLEWMGGIIPIFGTANYAQKFQGRVTITADESTSTAYMELSSLRSEDTAVYYCARSSYGWSYEFDYWGQGTLVTVSS VL: DIQMTQSPSSLSASVGDRVTITCRASQSINTNLNWYQQKPGKAPKLLIYAASSLQSGVPSRFSGSGSGTDFTLTISSLQPEDFATYYCQQARDTPITFGQGTKVEIKR
